According to patent publication US20030073818A1 (MEDICAL COLLEGE OF GEORGIA RESEARCH INSTITUTE, published 2003):

B3: Calcyon:GAL4 AD fusion protein (encoded by pACTCalcyon) (other, not shown: large carriers)
chain: MVKLGCSFSGKPGKDPGDQDGAAMDSVPLISPLDISQLQPPLPDQVVIKTQTEYQLSSPDQQNFPDLEGQRLNCSHPEEGRRLPTARMIAFAMALLGCVLIMYKAIWYDQFTCPDGFLLRHKICTPLTLEMYYTEMDPERHRSILAAIGAYPLSRKHGTETPAAWGDGYRAAKEERKGPTQAGAAAAATEPPGKPSAKAEKEAARKAAGSAAPPPAQ
notes: Library clone from a human brain cDNA:GAL4 AD library; The 936 bp insert holds the whole 217 residue ORF; also called pACTP24; clone K37

Legend:
[1] = molecular target: T1, D1/GAL4 BD fusion protein (hD1 receptor residues 365-446 fused to the GAL4 DNA binding domain, pGBTD1) (yeast; human, UniProt P04386 1-147; P21728 365-446); test: yeast two-hybrid, X-Gal colony filter assay
T1 construct: D1 segment is at the 3' end of the GAL4 BD open reading frame; also called pGBTD1365-446; D1:GAL4 fusion protein
Source text: A nitrocellulose filter was placed on the plate to transfer the colonies to the filter. Cells were permeabilized by freezing in liquid nitrogen, and then soaked in buffer containing X-Gal.

[2] = molecular target: B3; test: yeast two-hybrid
[3] = molecular target: T1, D1/GAL4 BD fusion protein (hD1 receptor …); test: yeast two-hybrid

B1: GAL4 Activation Domain (AD) protein encoded on the vector pGAD424 (other, yeast, UniProt P04386 768-881, looked up)
chain: ANFNQSGNIADSSLSFTFTNSSNGPNLITTQTNSQALSQPIASSNVHDNFMNNEITASKIDDGNNSKPLSPGWTDQTAYNAFGITTGMFNTTTMDDVYNYLFDDEDTPPNPKKE
binding result [1]: no binding

B2: D1 receptor:GAL4 binding domain fusion protein pGBTD1421-435 (other, yeast;human, UniProt P04386 1-147, looked up)
chain: MKLLSSIEQACDICRLKKLKCSKEKPKCAKCLKNNWECRYSPKTKRSPLTRAHLTEVESRLERLEQLFLLIFPREDLDMILKMDSLQDIKALLTGLFVQDNVNKDAVTDRLASVETDMPLTLRQHRISATSSSEESSNKGQRQLTVSSVILDYDTDVSLEKI
binding result [2]: binds

B3
binding result [3]: binds
